Test results: publication PMC3201852 (Nucleic Acids Research, 2011)

Legend:
Assay in all cases: pull-down
[1] = biological target: GST-fused human eIF2β (GST-eIF2β) (human) (UniProt P20042)
[2] = biological target: GST-5MP1-7A (7 alanine substitutions in AA-box 2) (human) (UniProt Q9Y6E2)
[3] = biological target: human eIF2 purified from HeLa cells (human, UniProt P05198 1-315; P20042 1-333; P41091 1-472)
Sequence of human eIF2 purified from HeLa cells (human, UniProt P05198 1-315; P20042 1-333; P41091 1-472) (P05198 whole entry, chain 1 of 3): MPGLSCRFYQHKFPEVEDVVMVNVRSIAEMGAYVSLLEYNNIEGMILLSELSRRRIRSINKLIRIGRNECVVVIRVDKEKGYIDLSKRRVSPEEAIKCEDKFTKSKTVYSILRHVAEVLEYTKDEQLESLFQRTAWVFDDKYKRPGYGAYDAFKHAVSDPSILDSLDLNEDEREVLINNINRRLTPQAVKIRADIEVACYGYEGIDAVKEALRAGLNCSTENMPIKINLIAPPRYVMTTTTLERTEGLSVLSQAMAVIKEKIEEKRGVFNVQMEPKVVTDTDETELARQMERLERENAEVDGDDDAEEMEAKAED
Sequence of human eIF2 purified from HeLa cells (human, UniProt P05198 1-315; P20042 1-333; P41091 1-472) (P20042 whole entry, chain 2 of 3): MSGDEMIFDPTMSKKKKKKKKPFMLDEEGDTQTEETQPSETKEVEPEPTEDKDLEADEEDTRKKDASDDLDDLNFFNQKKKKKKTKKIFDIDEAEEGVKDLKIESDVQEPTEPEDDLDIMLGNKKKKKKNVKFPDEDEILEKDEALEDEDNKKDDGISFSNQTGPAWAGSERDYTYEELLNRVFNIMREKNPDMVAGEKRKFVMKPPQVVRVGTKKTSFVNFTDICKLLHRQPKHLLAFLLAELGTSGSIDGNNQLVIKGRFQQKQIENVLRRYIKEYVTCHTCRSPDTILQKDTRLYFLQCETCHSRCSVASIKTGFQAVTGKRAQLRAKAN
Sequence of human eIF2 purified from HeLa cells (human, UniProt P05198 1-315; P20042 1-333; P41091 1-472) (P41091 whole entry, chain 3 of 3): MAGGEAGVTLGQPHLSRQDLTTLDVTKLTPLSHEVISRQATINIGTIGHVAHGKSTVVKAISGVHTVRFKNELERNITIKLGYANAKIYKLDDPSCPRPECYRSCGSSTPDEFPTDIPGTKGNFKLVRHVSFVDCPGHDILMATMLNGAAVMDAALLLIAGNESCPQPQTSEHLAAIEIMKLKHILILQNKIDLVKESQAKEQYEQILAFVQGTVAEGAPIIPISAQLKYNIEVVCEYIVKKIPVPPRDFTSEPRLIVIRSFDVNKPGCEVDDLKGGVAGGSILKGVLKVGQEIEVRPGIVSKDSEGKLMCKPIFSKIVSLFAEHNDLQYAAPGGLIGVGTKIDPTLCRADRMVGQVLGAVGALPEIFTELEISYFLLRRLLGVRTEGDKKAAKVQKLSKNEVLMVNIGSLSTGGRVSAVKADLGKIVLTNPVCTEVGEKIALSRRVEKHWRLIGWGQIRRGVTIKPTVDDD

Sequence of GST-fused human eIF2β (GST-eIF2β) (human) (P20042 whole entry, the tested form may be a part): as the sequence (P20042 whole entry, chain 2 of 3) above

FL-5MP1-7A (FLAG-tagged 5MP1 with the AA-box 2 mutation 7A) (from UniProt Q9Y6E2 1-419) (natural protein)
fold reduction of binding against wild-type FL-5MP1 [1]: 2 fold

human eIF2 purified from HeLa cells (from UniProt P05198 1-315; P20042 1-333; P41091 1-472) (complex)
fold reduction of binding against wild-type GST-5MP1 [2]: > 2 fold

B1: GST-5MP1 fusion protein (human eIF5-mimic protein 1) (natural protein, UniProt Q9Y6E2 1-419, looked up)
chain: MNKHQKPVLTGQRFKTRKRDEKEKFEPTVFRDTLVQGLNEAGDDLEAVAKFLDSTGSRLDYRRYADTLFDILVAGSMLAPGGTRIDDGDKTKMTNHCVFSANEDHETIRNYAQVFNKLIRRYKYLEKAFEDEMKKLLLFLKAFSETEQTKLAMLSGILLGNGTLPATILTSLFTDSLVKEGIAASFAVKLFKAWMAEKDANSVTSSLRKANLDKRLLELFPVNRQSVDHFAKYFTDAGLKELSDFLRVQQSLGTRKELQKELQERLSQECPIKEVVLYVKEEMKRNDLPETAVIGLLWTCIMNAVEWNKKEELVAEQALKHLKQYAPLLAVFSSQGQSELILLQKVQEYCYDNIHFMKAFQKIVVLFYKADVLSEEAILKWYKEAHVAKGKSVFLDQMKKFVEWLQNAEEESESEGEEN
binding result [3]: binds
